Source: publication PMC5813253

Assays:
[1] = molecular target: VgrG trimer of the central spike (V. cholerae (endogenous)); test: cryo-EM structure
[2] = molecular target: TssK (V. cholerae (endogenous)); test: cryo-EM structure

Substance	stoichiometry N [1]	stoichiometry N [2]
VgrG trimer of the central spike	3	–
TssK (natural protein)	–	3
